One block for each binder: values may come before it.
Tests used:
human insulin = human insulin (human, UniProt P01308 25-54; P01308 90-110, limits assumed); assay: screening of a human naive phage library; assay not named here
[1] = molecular target: T1, human insulin-like growth factor II (human, UniProt P01344 25-91); assay: ELISA on IGF-II, one Fab concentration (not given)
T1 construct: also called IGF-II; IGF II
Method: (§1) ELISA Binding Assay. Antigen was coated on narrow-well, 96-well plate at 50 ng/well overnight at 4° C. For phage ELISA, 10¹⁰ phage from each round of panning was incubated with antigen. Bound phage was detected with anti-M13-HRP polyclonal antibody (Pharmacia, Piscataway, N.J.). For soluble Fab binding assay, anti-Flag HRP conjugate was used to detect the binding.

[2] = molecular target: T2, recombinant human insulin-like growth factor I (human, UniProt P05019 49-118); assay: ELISA on IGF-I, one Fab concentration (not given), duplicate bars
T2 construct: also called IGF-I; IGF I
Method: as §1

[3] = molecular target: T2, recombinant human insulin-like growth …; assay: competition ELISA: m706 at 100 nM against the binding of IGF-I (50 nM) to soluble IGF-IR
[4] = molecular target: T2, recombinant human insulin-like growth …; assay: competition ELISA: m708 at 400 nM against the binding of IGF-I (50 nM) to soluble IGF-IR
[5] = molecular target: T1, human insulin-like growth factor II; assay: method not stated (FIG. 9)
[6] = molecular target: T2, recombinant human insulin-like growth …; assay: ELISA, Fab titrated on IGF-I
Method: as §1

T2 sequence (P05019 49-118 limits assumed): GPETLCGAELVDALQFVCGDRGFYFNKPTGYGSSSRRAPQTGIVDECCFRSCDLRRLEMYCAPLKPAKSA
T1 sequence (P01344 25-91 limits assumed): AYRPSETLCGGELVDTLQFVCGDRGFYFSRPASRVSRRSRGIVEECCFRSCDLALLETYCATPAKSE
human insulin, sequence (P01308 25-54 limits assumed, chain 1 of 2): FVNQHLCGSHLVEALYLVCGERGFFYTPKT
human insulin, sequence (P01308 90-110 limits assumed, chain 2 of 2): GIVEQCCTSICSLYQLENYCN

binding result (human insulin): no binding | binding result [1]: no binding | binding result [2]: binds
B1: m705 Fab (Fab, V domains shown)
VH: QVQLVQSGVEVKKPGASVKVPCKASGYTFTSYYMHWVRQAPGQGLEWMGIINPSGGSTSYAQKFQGRVTMTRDTSTSTVYMELSSLRSEDTAVYYCARDDFWSGAVGMDVWGQGTTVTVSS
VL: DIQMTQSPATLSLSPGERATLSCRASQDVGSDLAWYQQKPGQPPRLLVSDASNRATGIPARFSGSGSGTDFKLTINSLEPEDSAVYYCQQRRRWPPGATFGGGTKVEIKR
notes: also called No. 5; IGF-I specific mAb

binding result (human insulin): no binding | binding result [1]: no binding | binding result [3]: binds
B2: m706 Fab (Fab, V domains shown)
VH: EVQLVQSGVDVKKPGSSVKVSCKASGGTFSSYAISWVRQAPGQGLEWMGGIIPIFGTANYAQKFQGRVTITADESASTAYMELSSLRSEDTAVYYCASGYEGPLWAFDIWGQGTMVTVSS
VL: SQSVLTQPPSVSAAPGQRVSISCSGSSSNIGNYHVSWYQHLPGRAPKLLIYDNSKRPSGIPDRFSGSKSGTSATLDITGLQTGDEGDYYCATWDTSLRWVFGTGTKVTVL
notes: also called No. 6; IGF-I specific mAb

binding result [4]: binds
B3: m708 Fab (Fab, V domains shown)
VH: QVQLQQSGAEVKKPGSSVKVSCKASGGTFSSYAISWVRQAPGQGLEWMGGIIPILGIANYAQKFQGRVTITADESTSTAYMELSSLRSEDTAVYYCARGPRGYSYNFDYWGQGTLVTVSS
VL: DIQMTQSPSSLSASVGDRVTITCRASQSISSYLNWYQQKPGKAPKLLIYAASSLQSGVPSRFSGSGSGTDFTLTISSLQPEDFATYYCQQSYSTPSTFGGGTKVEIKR
notes: also called No. 8

Kd [5]: ~0.08 nM
B4: m708.2 IgG1 (antibody, V domains shown)
VH: QVQLQQSGAEVKKPGSSVKVSCKASGGTFSSYAISWVRQAPGQGLEWMGGIIPILGIANYAQKFQGRVTITADESTSTAYMELSSLRSEDTAVYYCARGPRGYSYNFDYWGQGTLVTVSS
VL: DIQMTQSPSSLSASVGDRVTIACRASQTISRYLNWYQQKPGKAPKLLIYAASSLQSGVSSRFSGSGSGTEFTLTISSLQPEDFATYFCQQTYSPPITFGQGTRLEIKR
notes: also called IgG708.2

binding result [6]: binds
B5: m708.2 Fab (Fab, V domains shown)
VH: QVQLQQSGAEVKKPGSSVKVSCKASGGTFSSYAISWVRQAPGQGLEWMGGIIPILGIANYAQKFQGRVTITADESTSTAYMELSSLRSEDTAVYYCARGPRGYSYNFDYWGQGTLVTVSS
VL: DIQMTQSPSSLSASVGDRVTIACRASQTISRYLNWYQQKPGKAPKLLIYAASSLQSGVSSRFSGSGSGTEFTLTISSLQPEDFATYFCQQTYSPPITFGQGTRLEIKR
notes: also called clone m708.2
